Laboratory results published in IntAct's records for PubMed 15841490.

B1: SH2 domain-containing protein 1A (Homo sapiens), O60880-1 (parent)
chain: MDAVAVYHGKISRETGEKLLLATGLDGSYLLRDSESVPGVYCLCVLYHGYIYTYRVSQTETGSWSAETAPGVHKRYFRKIKNLISAFQKPDQGIVIPLQYPVEKKSSARSTQGTTGIREDPDVCLKAP
partner: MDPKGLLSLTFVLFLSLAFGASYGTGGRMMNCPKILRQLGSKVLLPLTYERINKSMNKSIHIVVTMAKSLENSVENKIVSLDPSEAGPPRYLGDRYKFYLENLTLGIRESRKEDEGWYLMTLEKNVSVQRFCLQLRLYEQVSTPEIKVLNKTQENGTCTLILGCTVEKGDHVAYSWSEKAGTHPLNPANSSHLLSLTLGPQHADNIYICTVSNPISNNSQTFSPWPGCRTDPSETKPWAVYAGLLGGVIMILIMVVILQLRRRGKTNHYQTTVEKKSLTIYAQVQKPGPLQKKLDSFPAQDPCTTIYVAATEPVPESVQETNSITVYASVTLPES

Variants of: B1
Settings: with slaf1_human SLAMF1, Q13291

| effect of a mutation on the interaction | Variant |
| --- | --- |
| disrupting interaction strength | MDAVAVYHGKISRETDEKLLLATGLDGSYLLRDSESVPGVYCLCVLYHGYIYTYRVSQTETGSWSAETAPGVHKRYFRKIKNLISAFQKPDQGIVIPLQYPVEKKSSARSTQGTTGIREDPDVCLKAP [G16D] |
